Data on one molecule can be found in PMC10881513 (Nature Communications, 2024).

For the experiment, the target named is ASFV RNA polymerase subunit vRPB3-11 (African swine fever virus, strain BA71V, UniProt Q65184 1-359). Briefly: cryo-EM structure. The settings on record: both partners purified.
Chain of ASFV RNA polymerase subunit vRPB3-11 (Q65184 whole entry): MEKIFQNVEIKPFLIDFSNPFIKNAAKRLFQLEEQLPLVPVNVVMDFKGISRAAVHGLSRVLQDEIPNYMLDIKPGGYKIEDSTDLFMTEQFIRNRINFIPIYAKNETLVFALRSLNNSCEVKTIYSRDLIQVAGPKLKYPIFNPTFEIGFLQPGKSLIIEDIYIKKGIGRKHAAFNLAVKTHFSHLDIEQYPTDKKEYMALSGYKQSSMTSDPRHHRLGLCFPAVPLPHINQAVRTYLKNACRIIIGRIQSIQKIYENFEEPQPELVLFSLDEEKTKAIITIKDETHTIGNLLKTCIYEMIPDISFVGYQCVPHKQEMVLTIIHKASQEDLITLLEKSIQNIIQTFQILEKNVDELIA

B1: ASFV RNA polymerase subunit vRPB10 (natural protein)
chain: MLIPVVCFTCGFPIGTYAAIFDKARTEYIKTKMDGTLPQNIPLDASLQIELKDLITALGIPMRVCCRTHLITTLDYRKYY
Turning to B1, the binding result is on record as “binds”.
